Publication PMC4678016

Biological target: capping protein (CP), purified, as used in pyrene-actin polymerization assays
Experiment: pyrene-actin seeded polymerization assay

## CARMIL2-CBR (CP-binding region of human CARMIL2b, Pro-961 to Arg-1072) (from UniProt Q6F5E8-2 961-1072) (domain or fragment)
  Kd: 2.9 nM
